From patent US7754855

Molecular target: rabbit GH receptor (rabbit) (UniProt P19941)
Assay: cell-based or functional assay

UniProt P19941, sequence (P19941 19-638): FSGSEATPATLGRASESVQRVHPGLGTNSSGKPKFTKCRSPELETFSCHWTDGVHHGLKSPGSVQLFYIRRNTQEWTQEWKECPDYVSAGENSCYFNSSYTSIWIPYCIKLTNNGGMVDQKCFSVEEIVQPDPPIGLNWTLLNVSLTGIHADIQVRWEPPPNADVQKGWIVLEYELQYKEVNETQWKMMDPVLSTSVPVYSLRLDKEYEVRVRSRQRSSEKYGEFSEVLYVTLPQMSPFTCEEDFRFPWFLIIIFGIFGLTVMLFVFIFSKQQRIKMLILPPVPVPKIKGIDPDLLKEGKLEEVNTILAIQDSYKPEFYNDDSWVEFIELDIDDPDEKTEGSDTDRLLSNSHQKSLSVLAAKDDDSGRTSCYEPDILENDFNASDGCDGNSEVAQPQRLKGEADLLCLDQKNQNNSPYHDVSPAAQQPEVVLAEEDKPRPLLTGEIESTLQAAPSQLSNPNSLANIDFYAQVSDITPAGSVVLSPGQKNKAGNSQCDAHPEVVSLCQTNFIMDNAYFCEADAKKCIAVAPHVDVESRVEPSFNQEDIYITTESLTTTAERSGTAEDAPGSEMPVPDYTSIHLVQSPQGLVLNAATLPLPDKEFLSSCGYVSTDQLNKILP

Q: “human pituitary GH standard (from UniProt P01241 27-217) (ligand)” was tested. Which Mean EC50 (nM), proliferation of GH-R4 cells did it give?
A: 0.036 nM

Q: And the Mean EC50 (ng/ml), proliferation of GH-R4 cells?
A: 0.8 ng/mL
